This assay has as its target T1, EGFR (UniProt P00533 25-645, limits assumed).
T1 construct: also called 表皮生长因子受体
Kind of assay: not described (summary of experimental results; compared with C225, 2F8 and 3C6).

B1: 全人源抗EGFR抗体15H8 (antibody, human IgG1, kappa, V domains shown)
VH: EVQLVESGGGLVQPGGSLRLSCAASGFTFSSYAMHWVRQAPGKGLEYVSAISSNGGSTYYANSVKGRFTISRDNSKNTLYLQMGSLRAEDMAVYYCAREGYSSSWYHNWFDSWGQGTLVTVSS
VL: DIVMTQTPLSLPVTPGEPASISCRSSQSLLDSDDGNTYLDWYLQKPGQSPQLLIYTLSYRASGVPDRFSGSGSGTDFTLKISRVEAEDVGVYYCMQRIEFPSLYTFGQGTKLEIKR
notes: Whole human antibody expressed in CHO-K1 and purified on Protein A. The expression genes carry a signal peptide, printed only as nucleotides; also called 15H8抗体; 全人源抗体15H8
Take B1: the binding result was “binds”.
